# Experimental data reported in patent publication US10047131B2, “Peptides and combination of peptides for use in immunotherapy against ovarian cancer and other cancers” (immatics biotechnologies GmbH, priority 2015, dated 2018).
# Target: HLA-A*02:01 (Homo sapiens, UniProt P04439, D140Y/D185E/D98H/E176V/E277Q/G131W/G231S/I119V/I121R/I166T/I218V/L300P/L318F/N151K/N90K/P208A/P217A/Q86G/Q94H/R138H/R169H/T345S)
# Test: MHC binding assay (UV-ligand exchange, ELISA of exchange yield)
# Conditions: binding to HLA-A*02:01, UV-ligand exchange
# Outline: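 Peptide–MHC complexes made by UV-ligand exchange, where a UV-cleavable peptide is replaced by the test peptide. Exchange yield measured by ELISA: complexes diluted 100-fold on streptavidin-coated plates, stabilized complexes detected with HRP anti-β2m, TMB read at 450 nm.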
row,Substance,"Peptide exchange (MHC class I binding score, peptide exchange yield)"
1,357 (SMHDLVLQV; listed as Homo sapiens) [compound 357],“+++” (≥50 = +++)
2,358 (ALDEYTSEL; listed as Homo sapiens) [compound 358],“++++” (≥75% = ++++)
3,359 (YLLPESVDL; listed as Homo sapiens) [compound 359],“+++” (≥50 = +++)
4,361 (ALYELEGTTV; listed as Homo sapiens) [compound 361],“+++” (≥50 = +++)
5,362 (TLYGLSVLL; listed as Homo sapiens) [compound 362],“+++” (≥50 = +++)
6,363 (KVLDVSDLESV; listed as Homo sapiens) [compound 363],“++” (≥20% = ++)
7,364 (LLQNEQFEL; listed as Homo sapiens) [compound 364],“+++” (≥50 = +++)
8,365 (YVIDQGETDVYV; listed as Homo sapiens) [compound 365],“+++” (≥50 = +++)
9,366 (RLLDMGETDLML; listed as Homo sapiens) [compound 366],“+++” (≥50 = +++)
10,367 (SLQNHNHQL; listed as Homo sapiens) [compound 367],“+++” (≥50 = +++)
11,369 (GLFPEHLIDV; listed as Homo sapiens) [compound 369],“+++” (≥50 = +++)
12,370 (SLLQDLVSV; listed as Homo sapiens) [compound 370],“+++” (≥50 = +++)
13,371 (FLQAHLHTA; listed as Homo sapiens) [compound 371],“++++” (≥75% = ++++)
14,372 (TMLLNIPLV; listed as Homo sapiens) [compound 372],“++” (≥20% = ++)
15,373 (SLLEDKGLAEV; listed as Homo sapiens) [compound 373],“++” (≥20% = ++)
16,374 (FLLQQHLISA; listed as Homo sapiens) [compound 374],“++” (≥20% = ++)
17,375 (SLTETIEGV; listed as Homo sapiens) [compound 375],“++” (≥20% = ++)
18,376 (AMFESSQNVLL; listed as Homo sapiens) [compound 376],“++” (≥20% = ++)
19,377 (FLLDSSASV; listed as Homo sapiens) [compound 377],“++” (≥20% = ++)
20,378 (ALGYFVPYV; listed as Homo sapiens) [compound 378],“+++” (≥50 = +++)
21,379 (IMEGTLTRV; listed as Homo sapiens) [compound 379],“++” (≥20% = ++)
22,380 (TLIEDEIATI; listed as Homo sapiens) [compound 380],“++” (≥20% = ++)

# The next lines start with the values.
row,"Peptide exchange (MHC class I binding score, peptide exchange yield)",Substance
1,“++” (≥20% = ++),381 (FIDEAYVEV; listed as Homo sapiens) [compound 381]
2,“++” (≥20% = ++),382 (ALQNYIKEA; listed as Homo sapiens) [compound 382]
3,“+++” (≥50 = +++),383 (ALLELENSVTL; listed as Homo sapiens) [compound 383]
4,“+++” (≥50 = +++),384 (ILFANPNIFV; listed as Homo sapiens) [compound 384]
5,“++” (≥20% = ++),385 (SLLEQGLVEA; listed as Homo sapiens) [compound 385]
6,“+++” (≥50 = +++),386 (ILFRYPLTI; listed as Homo sapiens) [compound 386]
7,“++++” (≥75% = ++++),387 (ALFQATAEV; listed as Homo sapiens) [compound 387]
8,“+++” (≥50 = +++),388 (SLTIDGIRYV; listed as Homo sapiens) [compound 388]
9,“++” (≥20% = ++),389 (LLADVTHLL; listed as Homo sapiens) [compound 389]
10,“+++” (≥50 = +++),390 (ALFMKQIYL; listed as Homo sapiens) [compound 390]
11,“+++” (≥50 = +++),391 (YVYPQRLNFV; listed as Homo sapiens) [compound 391]
12,“++” (≥20% = ++),392 (ALLHPQGFEV; listed as Homo sapiens) [compound 392]
13,“++” (≥20% = ++),393 (GLLDTQTSQVLTA; listed as Homo sapiens) [compound 393]
14,“+++” (≥50 = +++),394 (LLAVIGGLVYL; listed as Homo sapiens) [compound 394]
15,“++++” (≥75% = ++++),395 (ALALGGIAVV; listed as Homo sapiens) [compound 395]
16,“+++” (≥50 = +++),396 (ALLPDLPAL; listed as Homo sapiens) [compound 396]
17,“+++” (≥50 = +++),397 (YLFGERLLEC; listed as Homo sapiens) [compound 397]
18,“++” (≥20% = ++),398 (KLLEEDGTIITL; listed as Homo sapiens) [compound 398]
19,“+++” (≥50 = +++),399 (YLFEPLYHV; listed as Homo sapiens) [compound 399]
20,“++” (≥20% = ++),400 (SLLTEQDLWTV; listed as Homo sapiens) [compound 400]
21,“+++” (≥50 = +++),401 (ILLDDTGLAYI; listed as Homo sapiens) [compound 401]
22,“++” (≥20% = ++),402 (VLFSGALLGL; listed as Homo sapiens) [compound 402]
23,“++” (≥20% = ++),403 (KLYDRILRV; listed as Homo sapiens) [compound 403]
24,“++” (≥20% = ++),405 (ALYDVFLEV; listed as Homo sapiens) [compound 405]
